B1: Flagellar motor switch protein FliG (Escherichia coli (strain K12)), P0ABZ1 (parent)
chain: MSNLTGTDKSVILLMTIGEDRAAEVFKHLSQREVQTLSAAMANVTQISNKQLTDVLAEFEQEAEQFAALNINANDYLRSVLVKALGEERAASLLEDILETRDTASGIETLNFMEPQSAADLIRDEHPQIIATILVHLKRAQAADILALFDERLRHDVMLRIATFGGVQPAALAELTEVLNGLLDGQNLKRSKMGGVRTAAEIINLMKTQQEEAVITAVREFDGELAQKIIDEMFLFENLVDVDDRSIQRLLQEVDSESLLIALKGAEQPLREKFLRNMSQRAADILRDDLANRGPVRLSQVENEQKAILLIVRRLAETGEMVIGSGEDTYV
partner: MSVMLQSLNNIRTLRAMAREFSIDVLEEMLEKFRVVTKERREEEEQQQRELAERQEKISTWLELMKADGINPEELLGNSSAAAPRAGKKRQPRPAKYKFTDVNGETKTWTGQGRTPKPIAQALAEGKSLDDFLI
B2: Flagellar motor switch protein FliG (Escherichia coli (strain K12)), P0ABZ1 (parent)
chain: B1 chain
partner: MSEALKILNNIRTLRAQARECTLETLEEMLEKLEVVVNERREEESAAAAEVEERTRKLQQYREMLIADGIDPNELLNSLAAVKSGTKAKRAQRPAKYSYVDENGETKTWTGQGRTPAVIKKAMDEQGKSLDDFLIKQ
B3: DNA-binding protein H-NS (Escherichia coli (strain K12)), P0ACF8 (parent)
chain: B2 partner
partner: B1 chain

Variants of: B1
Conditions: with stpa_ecoli stpA
With MSNLTGTDKSVILLMTIGEDRAAEVFKHLSQREVQTLSAAMANVTQISNKQLTDVLAEFEQEAEQFAALNINANDYLRSVLVKALGEERAASLLEDILETRDTASGIETLNFMEPQSAADLIRDEHPQIIATILVHLKRAQAADILALFDERLRHDVMLWIATFGGVQPAALAELTEVLNGLLDGQNLKRSKMGGVRTAAEIINLMKTQQEEAVITAVREFDGELAQKIIDEMFLFENLVDVDDRSIQRLLQEVDSESLLIALKGAEQPLREKFLRNMSQRAADILRDDLANRGPVRLSQVENEQKAILLIVRRLAETGEMVIGSGEDTYV [R160W] the “effect of a mutation on the interaction” value was “disrupting interaction strength”. For MSNLTGTDKSVILLMTIGEDRAAEVFKHLSQREVQTLSAAMANVTQISNKQLTDVLAEFEQEAEQFAALNINANDYLRSVLVKALGEERAASLLEDILETRDTASGIETLNFMEPQSAADLIRDWHPQIIATILVHLKRAQAADILALFDERLRHDVMLRIATFGGVQPAALAELTEVLNGLLDGQNLKRSKMGGVRTAAEIINLMKTQQEEAVITAVREFDGELAQKIIDEMFLFENLVDVDDRSIQRLLQEVDSESLLIALKGAEQPLREKFLRNMSQRAADILRDDLANRGPVRLSQVENEQKAILLIVRRLAETGEMVIGSGEDTYV [E125W], the “effect of a mutation on the interaction” value was “disrupting interaction strength”. In the case of MSNLTGTDKSVILLMTIGEDRAAEVFKHLSQREVQTLSAAMANVTQISNKQLTDVLAEFEQEAEQFAALNINANDYLRSVLVKALGEERAASLLEDILETRDTASGIETLNFMEPQSAADLIRDEWPQIIATILVHLKRAQAADILALFDERLRHDVMLRIATFGGVQPAALAELTEVLNGLLDGQNLKRSKMGGVRTAAEIINLMKTQQEEAVITAVREFDGELAQKIIDEMFLFENLVDVDDRSIQRLLQEVDSESLLIALKGAEQPLREKFLRNMSQRAADILRDDLANRGPVRLSQVENEQKAILLIVRRLAETGEMVIGSGEDTYV [H126W], the “effect of a mutation on the interaction” value is reported as “disrupting interaction strength”.

Variants of: B2
Conditions: with hns_ecoli hns, P0ACF8
For MSNLTGTDKSVILLMTIGEDRAAEVFKHLSQREVQTLSAAMANVTQISNKQLTDVLAEFEQEAEQFAALNINANDYLRSVLVKALGEERAASLLEDILETRDTASGIETLNFMEPQSAADLIRDEWPQIIATILVHLKRAQAADILALFDERLRHDVMLRIATFGGVQPAALAELTEVLNGLLDGQNLKRSKMGGVRTAAEIINLMKTQQEEAVITAVREFDGELAQKIIDEMFLFENLVDVDDRSIQRLLQEVDSESLLIALKGAEQPLREKFLRNMSQRAADILRDDLANRGPVRLSQVENEQKAILLIVRRLAETGEMVIGSGEDTYV [H126W], the “effect of a mutation on the interaction” value was “disrupting interaction strength”. MSNLTGTDKSVILLMTIGEDRAAEVFKHLSQREVQTLSAAMANVTQISNKQLTDVLAEFEQEAEQFAALNINANDYLRSVLVKALGEERAASLLEDILETRDTASGIETLNFMEPQSAADLIRDEHPWIIATILVHLKRAQAADILALFDERLRHDVMLRIATFGGVQPAALAELTEVLNGLLDGQNLKRSKMGGVRTAAEIINLMKTQQEEAVITAVREFDGELAQKIIDEMFLFENLVDVDDRSIQRLLQEVDSESLLIALKGAEQPLREKFLRNMSQRAADILRDDLANRGPVRLSQVENEQKAILLIVRRLAETGEMVIGSGEDTYV [Q128W] was tested, and the “effect of a mutation on the interaction” value was “decreasing interaction strength”. In the case of MSNLTGTDKSVILLMTIGEDRAAEVFKHLSQREVQTLSAAMANVTQISNKQLTDVLAEFEQEAEQFAALNINANDYLRSVLVKALGEERAASLLEDILETRDTASGIETLNFMEPQSAADLIRDEHPQIIATILVHLKRAQAADILALFDERLRHDVMLWIATFGGVQPAALAELTEVLNGLLDGQNLKRSKMGGVRTAAEIINLMKTQQEEAVITAVREFDGELAQKIIDEMFLFENLVDVDDRSIQRLLQEVDSESLLIALKGAEQPLREKFLRNMSQRAADILRDDLANRGPVRLSQVENEQKAILLIVRRLAETGEMVIGSGEDTYV [R160W], the “effect of a mutation on the interaction” value is reported as “disrupting interaction strength”. MSNLTGTDKSVILLMTIGEDRAAEVFKHLSQREVQTLSAAMANVTQISNKQLTDVLAEFEQEAEQFAALNINANDYLRSVLVKALGEERAASLLEDILETRDTASGIETLNFMEPQSAADLIRDWHPQIIATILVHLKRAQAADILALFDERLRHDVMLRIATFGGVQPAALAELTEVLNGLLDGQNLKRSKMGGVRTAAEIINLMKTQQEEAVITAVREFDGELAQKIIDEMFLFENLVDVDDRSIQRLLQEVDSESLLIALKGAEQPLREKFLRNMSQRAADILRDDLANRGPVRLSQVENEQKAILLIVRRLAETGEMVIGSGEDTYV [E125W] was tested, and the “effect of a mutation on the interaction” value was “decreasing interaction strength”.

Variants of: B3
Conditions: with flig_ecoli fliG, P0ABZ1
With MSEALKILNNIRTLRAQARECTLETLEEMLEKLEVVVNERREEESAAAAEVEERTRKLQQYREMLIADGIDPNELLNSLAAVKSGTKAKRAQRPAKYSYVDENGETKTWTGDGRTPAVIKKAMDEQGKSLDDFLIKQ [Q112D] the “effect of a mutation on the interaction” value was “decreasing interaction”. In the case of MSEALKILNNIRTLRAQARECTLETLEEMLEKLEVVVNERREEESAAAAEVEERTRKLQQYREMLIADGIDPNELLNSLAAVKSGTKAKRAQRPAKYSYVDENGETKTWTGQDRTPAVIKKAMDEQGKSLDDFLIKQ [G113D], the “effect of a mutation on the interaction” value is reported as “decreasing interaction strength”. In the case of MSEALKILNNIRTLRAQARECTLETLEEMLEKLEVVVNERREEESAAAAEVEERTRKLQQYREMLIADGIDPNELLNSLAAVKSGTKAKRAQRPAKYSYVDENGETKTWTGQGWTPAVIKKAMDEQGKSLDDFLIKQ [R114W], the “effect of a mutation on the interaction” value is reported as “decreasing interaction strength”.
